The results in this text go back to paper PMC4856590 (Structure (London, England : 1993), 2016).

Where no end group is shown, it is not given here. The star is where a group is joined. FITC = O=C1OC2(c3ccc(O)cc3Oc3cc(O)ccc32)c2ccc(NC(=S)*)cc21

Assay [1] addresses T1, human COP1 β-propeller (376-731) (human, UniProt Q8NHY2 376-731). Briefly: fluorescence polarisation.
Assay [2] addresses T1, human COP1 β-propeller (376-731). Put plainly: fluorescence polarisation. This is another data set of the same source.

T1 sequence (Q8NHY2 376-731): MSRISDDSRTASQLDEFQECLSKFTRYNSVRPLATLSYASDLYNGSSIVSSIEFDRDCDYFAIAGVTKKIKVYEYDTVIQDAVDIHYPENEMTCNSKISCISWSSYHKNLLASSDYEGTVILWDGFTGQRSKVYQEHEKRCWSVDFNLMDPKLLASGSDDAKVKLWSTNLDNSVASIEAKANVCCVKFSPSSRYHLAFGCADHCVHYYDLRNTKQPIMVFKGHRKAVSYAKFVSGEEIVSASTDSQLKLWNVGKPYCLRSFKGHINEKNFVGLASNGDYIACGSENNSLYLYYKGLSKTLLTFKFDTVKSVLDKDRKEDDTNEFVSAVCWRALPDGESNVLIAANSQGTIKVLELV

In assay [1], {FITC}-SEIGTSDQIVPEYQEDSDI [FITC-SEIGTSDQIVPEYQEDSDI] yielded a Kd of 250 ± 40 nM.

B1: Trib1 molecule containing residues 83-372 (domain or fragment, human, UniProt Q96RU8 83-372, looked up)
chain: GSAPGPSRIADYLLLPLAEREHVSRALCIHTGRELRCKVFPIKHYQDKIRPYIQLPSHSNITGIVEVILGETKAYVFFEKDFGDMHSYVRSRKRLREEEAARLFKQIVSAVAHCHQSAIVLGDLKLRKFVFSTEERTQLRLESLEDTHIMKGEDDALSDKHGCPAYVSPEILNTTGTYSGKAADVWSLGVMLYTLLVGRYPFHDSDPSALFSKIRRGQFCIPEHISPKARCLIRSLLRREPSERLTAPEILLHPWFESVLEPGYIDSEIGTSDQIVPEYQEDSDISSFFC
For the molecule B1, the binding result in assay [2] was “binds”.
